{"source": "paper PMC5293257", "key": {"[1]": {"molecular_target": "fibronectin (human (endogenous in dHL-60)) (UniProt P02751)"}, "[2]": {"molecular_target": "fibronectin (human (endogenous in dHL-60)) (UniProt P02751)", "remark": "listed apart in the source"}}}
{"substance": "integrin α5β1 (from UniProt P08648 42-1049; P05556 21-798) (receptor)", "values": [{"measurement": "adhesion of K562 cells to NETs coated plates (NETs from dHL-60 stimulated in serum free conditions), percentage of adherent cells", "setting": "[1]", "value": 62, "unit": "%"}, {"measurement": "adhesion of K562 cells to NETs coated plates (serum free NETs) with anti-integrin blocking Ab, percentage of adherent cells", "setting": "[1]", "value": 10, "unit": "%"}, {"measurement": "adhesion of K562 cells to NETs coated plates (NETs from dHL-60 stimulated with 10% FBS), percentage of adherent cells", "setting": "[2]", "value": 59, "unit": "%"}, {"measurement": "adhesion of K562 cells to NETs coated plates with anti-α5β1 blocking antibody (P1D6), percentage of adherent cells", "setting": "[2]", "value": 24, "unit": "%"}]}
